pKi: −log10 of the molar value. Like-named read-outs stand apart in the source and are kept apart here.
Key:
Test in all cases: 125I-NDP-MSH competition, HEK293 membranes
[1] = molecular target: melanocortin 1 receptor (MC1R) (UniProt Q01726)
[2] = molecular target: melanocortin 5 receptor (MC5R) (UniProt P33032)
[3] = molecular target: melanocortin 1 receptor (MC1R) (UniProt Q01726); remark: listed apart in the source
[4] = molecular target: melanocortin 1 receptor (MC1R) (UniProt Q01726); remark: listed apart in the source

Sequence of melanocortin 1 receptor (MC1R) (Q01726 whole entry): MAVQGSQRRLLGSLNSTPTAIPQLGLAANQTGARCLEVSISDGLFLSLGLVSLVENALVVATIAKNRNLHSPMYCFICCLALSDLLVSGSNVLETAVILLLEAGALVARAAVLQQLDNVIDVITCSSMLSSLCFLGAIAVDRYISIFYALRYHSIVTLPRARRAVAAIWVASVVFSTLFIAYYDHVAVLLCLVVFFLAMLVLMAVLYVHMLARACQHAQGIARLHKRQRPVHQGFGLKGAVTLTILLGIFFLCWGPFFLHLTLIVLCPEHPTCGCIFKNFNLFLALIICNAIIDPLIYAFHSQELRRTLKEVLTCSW
Sequence of melanocortin 5 receptor (MC5R) (P33032 whole entry): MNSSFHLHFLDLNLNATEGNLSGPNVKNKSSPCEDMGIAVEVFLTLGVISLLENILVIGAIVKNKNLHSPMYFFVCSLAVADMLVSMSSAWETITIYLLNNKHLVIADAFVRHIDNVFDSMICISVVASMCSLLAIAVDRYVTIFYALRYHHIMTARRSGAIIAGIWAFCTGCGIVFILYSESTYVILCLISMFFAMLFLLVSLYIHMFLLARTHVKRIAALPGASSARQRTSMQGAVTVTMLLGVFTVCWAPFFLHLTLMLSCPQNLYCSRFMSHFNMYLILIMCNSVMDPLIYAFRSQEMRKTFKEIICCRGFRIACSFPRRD

Substance: retro-inverso α-MSH (peptide)
- pKi [1]: 8.34
- pKi [2]: 4.60
- pKi [3]: 8.39
- pKi [4]: 8.40
